Experimental data taken from patent US20080306007A1 (NEWCASTLE INNOVATION, published 2008).
Changes are numbered by the printed parent chain. One block for each binder: values may come before it.

Key:
[1] = biological target: T1, syndapin I (native, from rat brain lysate or synaptosomes) (rat, UniProt Q9Z0W5 1-441); assay: GST pull-down from rat brain lysate
T1 construct: also called PACSIN I; 52 kDa band

[2] = biological target: T2, endophilin I (native, from rat brain lysate or synaptosomes) (rat, UniProt O35179 1-352); assay: peptide competition in GST-DynI-PRD pull-down from rat brain lysate, Western blot
T2 construct: mature
Protocol: Total rat brain extract was prepared by homogenising brain tissue in ice-cold lysis buffer (1% Triton X-100, 150 mM NaCl, 25 mM Tris pH 7.4, 1 mM EDTA, 1 mM EGTA, 20 μg/ml leupeptin, 1 mM phenylmethylsulfonyl fluoride and EDTA-free Complete protease inhibitor (Roche)). The homogenate was centrifuged twice at 75,600 g for 30 min at 4° C. The supernatant was pre-cleared by addition of GSH-sepharose beads for 1 h, pelleted at 50 g for 5 min at 4° C., and the supernatant collected. GST-DynI-PRD recombinant proteins were then incubated with an equal amount of tissue lysate at 4° C. for 1 h. Beads were washed extensively with ice-cold 20 mM Tris pH 7.4 containing 1 mM EGTA, eluted in 2×SDS-PAGE sample buffer, resolved on 7.5-15% gradient SDS gels and stained with colloidal Coomassie Blue. Identification of proteins was by matrix-assisted laser desorption ionization time-of-flight mass spectrometry (MALDI-TOF MS). Some peptides were sequenced by tandem MS/MS.
A common characteristic of most binding sites for SH3 domains is the presence of the core amino acid motif PxxP, which is often followed or preceded by a basic Arg residue. There are 13 such motifs in the dynamin I PRD (numbered from site 1 at the N-terminus of the PRD at Pro-753 in dynamin I). […]

T1 sequence (Q9Z0W5 whole entry): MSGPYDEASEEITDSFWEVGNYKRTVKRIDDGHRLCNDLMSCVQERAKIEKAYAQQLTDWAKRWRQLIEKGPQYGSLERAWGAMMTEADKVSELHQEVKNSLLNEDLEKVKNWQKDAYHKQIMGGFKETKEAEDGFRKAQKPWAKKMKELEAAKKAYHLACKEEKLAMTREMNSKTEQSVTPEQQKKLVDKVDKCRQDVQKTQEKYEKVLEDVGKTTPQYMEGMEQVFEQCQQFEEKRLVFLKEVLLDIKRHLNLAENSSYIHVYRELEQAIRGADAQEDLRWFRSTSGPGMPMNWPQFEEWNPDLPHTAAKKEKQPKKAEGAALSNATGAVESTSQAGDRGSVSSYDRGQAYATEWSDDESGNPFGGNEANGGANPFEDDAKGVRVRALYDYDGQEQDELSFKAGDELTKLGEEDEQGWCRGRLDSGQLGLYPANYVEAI
T2 sequence (O35179 whole entry): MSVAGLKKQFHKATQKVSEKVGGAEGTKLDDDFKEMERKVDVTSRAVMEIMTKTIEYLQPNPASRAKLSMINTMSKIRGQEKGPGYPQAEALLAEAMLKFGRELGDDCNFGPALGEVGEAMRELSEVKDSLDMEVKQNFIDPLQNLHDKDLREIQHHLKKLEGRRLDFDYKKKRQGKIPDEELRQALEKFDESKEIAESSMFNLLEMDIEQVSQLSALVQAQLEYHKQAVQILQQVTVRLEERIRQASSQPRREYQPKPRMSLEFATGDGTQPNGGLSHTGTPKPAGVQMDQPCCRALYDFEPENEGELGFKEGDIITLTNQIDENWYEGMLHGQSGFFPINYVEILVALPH

- binding result [1]: no binding
B1: GST-DynI-2D (other, rat, UniProt P21575 746-864, looked up)
chain: NTTTVSTPMPPPVDDSWLQVQSVPAGRRSPTSSPTPQEEAPAVPPARPGSRGPAPGPPPAGSALGGAPPVPSRPGASPDPFGPPPQVPSRPNRAPPGVPSRSGQASPSRPESPRPPFDL
notes: range 746-864; not shown: glutathione S-transferase tag from vector pGEX4T-1

- binding result [1]: no binding
B2: GST-DynI-2E (other, rat, UniProt P21575 746-864, looked up)
chain: B1 chain with E38A, E39A
notes: as for B1

- fold weaker inhibitory effect than on syndapin I binding [2]: 5 fold
B3: DynI783-796 peptide (peptide)
peptide: RRAPAVPPARPGSR
notes: Synthetic peptide of the site 2 and site 3 region of dynamin I
